3 substances from paper PMC8565784 can be followed below.

The nature of data set [1]: pQC-Fluc PV neutralisation. The note with it: glycan gained; control: Q23 SOS gp160ΔCT parent.
Data set [2] can be described thus: SDS-PAGE-Western blot of VLP Env. As to conditions: glycan gained; control: Q23 SOS gp160ΔCT parent.

For the substance Q23 Env: D49N, the “other: neutralisation sensitivity” value in data set [1] is recorded as “increases”. Besides, the expression_or_secretion entry in data set [2] is on record as “increases”.

As for Q23 Env: D49N+D674N, the “other: neutralisation sensitivity” value in data set [1] is on record as “increases”. Moreover, the expression_or_secretion entry in data set [2] is “no change”.

For the substance Q23 Env: D674N, the “other: neutralisation sensitivity” value in data set [1] was “increases”. The expression_or_secretion result in data set [2] was “decreases”.
